Data as given in patent publication US20160038588A1, “Myostatin Antagonism in Human Subjects” (AMGEN INC., priority 2013, published 2016).
Where no end group is shown, it is not given here.

How the values were obtained:
[1] = biological target: T1, myostatin binding to ActRIIB/Fc (Homo sapiens, UniProt O14793); assay: Blocking assay on ActRIIB/Fc surface (BIAcore)
T1 construct: To produce mature myostatin, the pooled promyostatin was enzymatically cleaved between the propeptide and mature myostatin C terminal; host or cells: myostatin: E. coli K-12 strain 2596; ActRIIB/Fc purchased
T1 sequence (O14793 267-375): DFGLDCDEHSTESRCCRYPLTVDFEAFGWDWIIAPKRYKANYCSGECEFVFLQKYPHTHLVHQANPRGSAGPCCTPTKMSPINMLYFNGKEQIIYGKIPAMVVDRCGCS
Procedure: Blocking Assay on ActRIIB/Fc Surface
Blocking assays were carried out using immobilized ActRIIB/Fc (R&D Systems, Minneapolis, Minn.) and myostatin in the presence and absence of peptibodies with the BIAcore® assay system. […] Baseline myostatin-ActRIIB/Fc binding was first determined in the absence of any peptibody.
For early screening studies, peptibodies were diluted to 4 nM, 40 nM, and 400 nM in sample buffer and incubated with 4 nM myostatin (also diluted in sample buffer). The peptibody:ligand mixtures were allowed to reach equilibrium at room temperature (at least 5 hours) and then were injected over the immobilized ActRIIB/Fc surface for 20 to 30 minutes at a flow rate of 10 μl/min. […] Selected peptibodies were further characterized using the blocking assay of a full concentration series in order to derive IC50 values (for neutralizing peptibodies) or EC50 (for non-neutralizing peptibodies). The peptibody samples were serially diluted from 200 nM to […] in sample buffer and incubated with […] myostatin at room temperature to reach equilibrium (minimum of five hours) before injected over the immobilized ActRIIB/Fc surface for 20 to 30 minutes at a flow rate of 10 μl/min. Following the sample injection, bound ligand was allowed to dissociate from the receptor for 3 minutes.

myostatin [2] = biological target: T2, myostatin (Homo sapiens, UniProt O14793); assay: C2C12 pMARE-luc cell based myostatin activity assay
T2 construct: To produce mature myostatin, the pooled promyostatin was enzymatically cleaved between the propeptide and mature myostatin C terminal; made in house
T2 sequence (O14793 267-375): T1 sequence (O14793 267-375)
Excerpt: The antagonists including the binding agents described herein can be tested for their ability to bind myostatin and inhibit or block myostatin activity. Any number of assays or animal tests may be used to determine the ability of the agent to inhibit or block myostatin activity. Several assays used for characterizing the peptides and peptibodies of the present invention are described in the Examples below. One assay is the C2C12 pMARE-luc assay which makes use of a myostatin-responsive cell line (C2C12 myoblasts) transfected with a luciferase reporter vector containing myostatin/activin response elements (MARE). Exemplary peptibodies are assayed by pre-incubating a series of peptibody dilutions with myostatin, and then exposing the cells to the incubation mixture. The resulting luciferase activity is determined, and a titration curve is generated from the series of peptibody dilutions. The IC50 (the concentration of peptibody to achieve 50% inhibition of myostatin activity as measured by luciferase activity) was then determined. A second assay described below is a BIAcore® assay to determine the kinetic parameters ka (association rate constant), kd (dissociation rate constant), and KD (dissociation equilibrium constant) for the myostatin binding agents and other antagonists such as antibodies capable of binding myostatin and its receptor. Lower dissociation equilibrium constants (KD, expressed in nM) indicated a greater affinity of the peptibody for myostatin. […] These assays are described in Example 3.
C2C12 Cell Based Myostatin Activity Assay
A myostatin-responsive reporter cell line was generated by transfection of C2C12 myoblast cells (ATCC No: CRL-1772) with a pMARE-luc construct. The pMARE-luc construct was made by cloning twelve repeats of the CAGA sequence, representing the myostatin/activin response elements (Dennler et al. EMBO 17: 3091-3100 (1998)) into a pLuc-MCS reporter vector (Stratagene cat #219087) upstream of the TATA box. The myoblast C2C12 cells naturally express myostatin/activin receptors on its cell surface. When myostatin binds the cell receptors, the Smad pathway is activated, and phosphorylated Smad binds to the response element (Macias-Silva et al. Cell 87:1215 (1996)), resulting in the expression of the luciferase gene. Luciferase activity is then measured using a commercial luciferase reporter assay kit (cat # E4550, Promega, Madison, Wis.) according to manufacturer's protocol. A stable line of C2C12 cells that had been transfected with pMARE-luc (C2C12/pMARE clone #44) was used to measure myostatin activity according to the following procedure.
Equal numbers of the reporter cells (C2C12/pMARE clone #44) were plated into 96 well cultures. A first round screening using two dilutions of peptibodies was performed with the myostatin concentration fixed at 4 nM. Recombinant mature myostatin was preincubated for 2 hours at room temperature with peptibodies at 40 nM and 400 nM respectively. The reporter cell culture was treated with the myostatin with or without peptibodies for six hours. Myostatin activity was measured by determining the luciferase activity in the treated cultures. This assay was used to initially identify peptibody hits that inhibited the myostatin signaling activity in the reporter assay. Subsequently, a nine point titration curve was generated with the myostatin concentration fixed at 4 nM. The myostatin was preincubated with each of the following nine concentrations of peptibodies: […], 0.4 nM, 4 nM, 20 nM, 40 nM, 200 nM, 400 nM, 2 uM and 4 uM for two hours before adding the mixture to the reporter cell culture. The IC50 values were for a number of exemplary peptibodies are provided in Tables III and for affinity matured peptibodies, in Table VIII.

myostatin [3] = biological target: T2, myostatin; assay: BIAcore affinity analysis on immobilized myostatin; format: binding; conditions: Biacore assay
Excerpt: The antagonists including the binding agents described herein can be tested for their ability to bind myostatin and inhibit or block myostatin activity. Any number of assays or animal tests may be used to determine the ability of the agent to inhibit or block myostatin activity. Several assays used for characterizing the peptides and peptibodies of the present invention are described in the Examples below. One assay is the C2C12 pMARE-luc assay which makes use of a myostatin-responsive cell line (C2C12 myoblasts) transfected with a luciferase reporter vector containing myostatin/activin response elements (MARE). Exemplary peptibodies are assayed by pre-incubating a series of peptibody dilutions with myostatin, and then exposing the cells to the incubation mixture. The resulting luciferase activity is determined, and a titration curve is generated from the series of peptibody dilutions. The IC50 (the concentration of peptibody to achieve 50% inhibition of myostatin activity as measured by luciferase activity) was then determined. […]
Direct binding assays were used to screen and rank the peptibodies in order of their ability to bind to immobilized myostatin. […] Peptibody binding kinetic parameters including ka (association rate constant), kd (dissociation rate constant) and KD (dissociation equilibrium constant) were determined using the BIA evaluation 3.1 computer program (Biacore, Inc.). […]

myostatin [4] = biological target: T2, myostatin; assay: Epitope binning for peptibodies (BIAcore); format: binding
Procedure: Epitope Binning for Peptibodies
A purified peptibody was immobilized on a BIAcore chip to capture myostatin before injection of a second peptibody, and the amount of secondary peptibody bound to the captured myostatin was determined Only peptibodies with distinct epitopes will bind to the captured myostatin, thus enabling the binning of peptibodies with similar or distinct epitope binding properties.

TN8-19: peptibody; peptide QGHCTRWPWMCPPY (cysteine pairing not given here; also: Fc fusion peptibody)
blocking of myostatin/ActRIIB/Fc interactions [1]: does not block
inhibition of myostatin activity in cell-based assay (myostatin [2]): inhibit myostatin activity
IC50 of peptibody compared with peptide (FIG. 1) (myostatin [2]; C2C12 based assay): significantly less than that of the peptide
IC50 (myostatin [2]; pMARE luc cell-based assay, myostatin 4 nM): ~23 nM
Kd (myostatin [3]): ~2 nM
epitope on myostatin (binning) (myostatin [4]): bind to different epitopes
